In patent US20090286721A1 (published 2009):
Values belong to the binder of their own block, whether it stands above or below them.

Experiments:
[1] = molecular target: T1, P-selectin on thrombin-activated human platelets (human, UniProt P16109 42-830); assay: ELISA on plate-coated thrombin-activated human platelets
T1 construct: whole, on cells
T1 sequence (looked up): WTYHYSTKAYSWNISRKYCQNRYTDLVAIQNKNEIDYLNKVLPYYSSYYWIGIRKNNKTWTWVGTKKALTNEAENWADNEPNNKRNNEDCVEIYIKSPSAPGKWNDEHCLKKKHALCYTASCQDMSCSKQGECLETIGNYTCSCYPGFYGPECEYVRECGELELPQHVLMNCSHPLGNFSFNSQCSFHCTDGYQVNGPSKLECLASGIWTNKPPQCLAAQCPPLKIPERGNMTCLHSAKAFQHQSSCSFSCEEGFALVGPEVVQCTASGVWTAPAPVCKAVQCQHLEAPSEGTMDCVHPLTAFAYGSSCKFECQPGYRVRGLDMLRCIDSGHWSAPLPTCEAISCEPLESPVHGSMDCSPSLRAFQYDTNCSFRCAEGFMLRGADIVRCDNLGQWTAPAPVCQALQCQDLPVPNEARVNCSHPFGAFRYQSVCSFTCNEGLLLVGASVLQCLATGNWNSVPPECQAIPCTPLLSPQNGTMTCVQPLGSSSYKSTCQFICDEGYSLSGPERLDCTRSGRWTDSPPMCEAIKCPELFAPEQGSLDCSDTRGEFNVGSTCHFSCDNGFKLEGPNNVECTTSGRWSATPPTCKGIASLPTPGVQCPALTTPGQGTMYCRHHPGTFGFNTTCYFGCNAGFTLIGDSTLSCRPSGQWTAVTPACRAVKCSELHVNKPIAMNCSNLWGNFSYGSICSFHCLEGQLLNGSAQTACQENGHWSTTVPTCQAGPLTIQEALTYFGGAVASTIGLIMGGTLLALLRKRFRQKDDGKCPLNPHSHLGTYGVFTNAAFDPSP
Experimental: The ability of purified HuSZ51-DSPAalpha1 to bind specifically to human or dog thrombin-activated platelets in vitro was investigated by ELISA. 96-Well plates were coated with a 100 μl solution containing 1×10⁶ thrombin-activated human or dog platelets per well and incubated overnight at 4° C. The coated plates were washed once with washing solution (PBS, pH 7.4 plus 0.05% Tween-20), and then incubated with 200 μl blocking solution (5% milk prepared in PBS) per well at 37° C. for 2 hours. The blocked plates were washed 3 times with washing solution, and then incubated with 100 μl washing solution containing various amounts of HuSZ51-DSPAalpha1, SZ51, or human IgG1 for 1 hour at 37° C. The plates were washed 3 times with washing solution, and then incubated with peroxidase-conjugated protein L (Pierce) for 1 hour at 37° C. The plates were washed 4 times with washing solution, and then incubated with 100 μl of TMB/E substrate (ZYMED) for 5 minutes at room temperature. The perioxidase reactions were stopped by the addition of 100 μl 1 N HCl, and the plates were read for absorbance at 450 nm within 5 minutes.

[2] = molecular target: T2, recombinant human P-selectin (R&D Systems) (human, UniProt P16109 42-771); assay: recombinant soluble P-selectin (0-40 ng) after SDS-PAGE on nitrocellulose, detection with HRP goat anti-human Fc
T2 construct: extracellular domain; also called recombinant soluble P-selectin; recombinant P-selectin
T2 sequence (looked up): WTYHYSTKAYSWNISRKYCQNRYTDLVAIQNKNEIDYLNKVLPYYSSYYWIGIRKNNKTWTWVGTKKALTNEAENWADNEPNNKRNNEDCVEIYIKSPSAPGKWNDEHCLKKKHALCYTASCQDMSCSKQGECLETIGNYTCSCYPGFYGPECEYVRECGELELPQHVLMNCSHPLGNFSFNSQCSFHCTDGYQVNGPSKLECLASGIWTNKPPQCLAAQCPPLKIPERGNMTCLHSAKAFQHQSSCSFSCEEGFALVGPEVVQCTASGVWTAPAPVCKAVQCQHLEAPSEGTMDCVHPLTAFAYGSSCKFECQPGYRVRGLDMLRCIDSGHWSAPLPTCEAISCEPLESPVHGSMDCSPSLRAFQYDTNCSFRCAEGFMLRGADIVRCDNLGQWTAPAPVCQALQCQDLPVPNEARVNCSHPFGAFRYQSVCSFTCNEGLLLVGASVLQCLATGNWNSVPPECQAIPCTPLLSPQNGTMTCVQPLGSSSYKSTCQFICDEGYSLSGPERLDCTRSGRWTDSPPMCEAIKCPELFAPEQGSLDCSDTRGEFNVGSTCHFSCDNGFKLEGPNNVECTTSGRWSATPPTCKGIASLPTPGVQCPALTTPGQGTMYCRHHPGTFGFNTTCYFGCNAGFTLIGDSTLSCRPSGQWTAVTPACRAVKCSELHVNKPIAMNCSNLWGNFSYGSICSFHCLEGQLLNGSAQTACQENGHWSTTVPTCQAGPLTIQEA
Experimental: 1. Binding of HuSZ51-DSPAalpha1 to P-selectin on a nitrocellulose membrane. The indicated amounts of recombinant soluble P-selectin (R&D systems), 0, 5, 10, 20, or 40 ng, along with 10 ng of human IgG1, were separated on SDS-PAGE gels and then transferred onto nitrocellulose membranes. One membrane was incubated with HuSZ51, and the second was incubated with HuSZ51-DSPAalpha1. After washing, bound HuSZ51 or HuSZ51-DSPAalpha1 was detected by HRP-conjugated goat anti-human Fc. The intensity of human IgG1 lane, which is also detected by HRP-conjugated goat anti-human Fc was used as a normalization control.

- binding result [1]: binds
B1: SZ51, murine anti-P-selectin monoclonal antibody (antibody, V domains shown)
VH: QVQLLESGPELKKPGETVKISCKASGYTFTNYGMNWVKQAPGKGLKWMGWINTYTGEPIYADDFKGRFAFSLETSASTAHLQINSLKNEDMATYFCARGRGGNAMDYWGQGTSVTVSS
VL: ELQMTQSPSSLSASVGDRVTISCSASQDISNYLNWYQQKPDGPVKLLIYYTTSNLHSGVPSRFSGSGSGTDYSLTISNLEPEDIATYYCQQYNKVPWTFGGGTKLEIKR
notes: Variable region DNA in GenBank gi:4099282 (heavy) and gi:4099284 (light); also called parental monoclonal antibody SZ51; anti-P-selectin mouse monoclonal antibody

- binding result [2]: binds
B2: HuSZ51, chimeric mouse-human anti-P-selectin monoclonal antibody (antibody, human IgG1, V domains shown)
VH: B1 VH
VL: B1 VL
